B1: MBL-Associated Serine Protease-2 (MASP-2) (protein)
chain: TPLGPKWPEPVFGRLASPGFPGEYANDQERRWTLTAPPGYRLRLYFTHFDLELSHLCEYDFVKLSSGAKVLATLCGQESTDTERAPGKDTFYSLGSSLDITFRSDYSNEKPFTGFEAFYAAEDIDECQVAPGEAPTCDHHCHNHLGGFYCSCRAGYVLHRNKRTCSALCSGQVFTQRSGELSSPEYPRPYPKLSSCTYSISLEEGFSVILDFVESFDVETHPETLCPYDFLKIQTDREEHGPFCGKTLPHRIETKSNTVTITFVTDESGDHTGWKIHYTSTAQPCPYPMAPPNGHVSPVQAKYILKDSFSIFCETGYELLQGHLPLKSFTAVCQKDGSWDRPMPACSIVDCGPPDDLPSGRVEYITGPGVTTYKAVIQYSCEETFYTMKVNDGKYVCEADGFWTSSKGEKSLPVCEPVCGLSARTTGGRIYGGQKAKPGDFPWQVLILGGTTAAGALLYDNWVLTAAHAVYEQKHDASALDIRMGTLKRLSPHYTQAWSEAVFIHEGYTHDAGFDNDIALIKLNNKVVINSNITPICLPRKEAESFMRTDDIGTASGWGLTQRGFLARNLMYVDIPIVDHQKCTAAYEKPPYPRGSVTANMLCAGLESGGKDSCRGDSGGALVFLDSETERWFVGGIVSWGSMNCGEAGQYGVYTKVINYIPWIENIISDF
B2: MBL-Associated Serine Protease-1 (MASP-1) (protein)
chain: HTVELNNMFGQIQSPGYPDSYPSDSEVTWNITVPDGFRIKLYFMHFNLESSYLCEYDYVKVETEDQVLATFCGRETTDTEQTPGQEVVLSPGSFMSITFRSDFSNEERFTGFDAHYMAVDVDECKEREDEELSCDHYCHNYIGGYYCSCRFGYILHTDNRTCRVECSDNLFTQRTGVITSPDFPNPYPKSSECLYTIELEEGFMVNLQFEDIFDIEDHPEVPCPYDYIKIKVGPKVLGPFCGEKAPEPISTQSHSVLILFHSDNSGENRGWRLSYRAAGNECPELQPPVHGKIEPSQAKYFFKDQVLVSCDTGYKVLKDNVEMDTFQIECLKDGTWSNKIPTCKIVDCRAPGELEHGLITFSTRNNLTTYKSEIKYSCQEPYYKMLNNNTGIYTCSAQGVWMNKVLGRSLPTCLPVCGLPKFSRKLMARIFNGRPAQKGTTPWIAMLSHLNGQPFCGGSLLGSSWIVTAAHCLHQSLDPEDPTLRDSDLLSPSDFKIILGKHWRLRSDENEQHLGVKHTTLHPQYDPNTFENDVALVELLESPVLNAFVMPICLPEGPQQEGAMVIVSGWGKQFLQRFPETLMEIEIPIVDHSTCQKAYAPLKKKVTRDMICAGEKEGGKDACAGDSGGPMVTLNRERGQWYLVGTVSWGDDCGKKDRYGVYSYIHHNKDWIQRVTGVRN

Columns and labels:
[1] = biological target: mannose-binding lectin (MBL), P11226
Chain of mannose-binding lectin (MBL), P11226 (P11226 21-248): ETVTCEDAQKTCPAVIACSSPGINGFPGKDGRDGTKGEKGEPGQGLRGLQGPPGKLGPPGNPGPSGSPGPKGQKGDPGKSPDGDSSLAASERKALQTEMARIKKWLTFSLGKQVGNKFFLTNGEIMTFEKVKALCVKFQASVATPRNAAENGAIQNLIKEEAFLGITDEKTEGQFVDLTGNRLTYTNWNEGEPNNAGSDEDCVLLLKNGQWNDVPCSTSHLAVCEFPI

Chain of Ficolin-3, O75636 (O75636 24-299): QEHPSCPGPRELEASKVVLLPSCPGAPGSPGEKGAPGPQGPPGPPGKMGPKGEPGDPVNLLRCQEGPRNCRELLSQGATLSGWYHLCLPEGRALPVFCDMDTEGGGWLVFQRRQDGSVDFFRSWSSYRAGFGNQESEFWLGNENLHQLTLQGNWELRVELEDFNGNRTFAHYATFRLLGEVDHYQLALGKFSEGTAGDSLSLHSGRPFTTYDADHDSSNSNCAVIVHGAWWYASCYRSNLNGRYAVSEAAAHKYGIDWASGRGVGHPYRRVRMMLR

Row | Protein | C4 deposition (OD490-650nm), AcBSA/rFicolin-3 with Ficolin-3 deficient serum (Ficolin-3, O75636) | C4 deposition (OD490-650nm), mannan/rMBL with MBL deficient serum [1] | complement activation (C3 and C4) [1]
1 | B1 | Application of rMASP-2 resulted in a strong positive dose dependent enhancement of the C4 deposition via both the Ficolin-3 and MBL activation pathways (FIGS. 25B and 25E) | Application of rMASP-2 resulted in a strong positive dose dependent enhancement of the C4 deposition via both the Ficolin-3 and MBL activation pathways (FIGS. 25B and 25E) | MASP-2 were able to strongly activate both the C3 and C4 complement proteins
2 | B2 |  |  | MASP-1 were able to activate both the C3 and C4 complement proteins

— patent US20120282285
